The target of assay [1] is T1, SARS-CoV-2 spike receptor-binding domain (RBD), residues 333-529 (SARS-CoV-2 ancestral (Wuhan-Hu-1, …, UniProt P0DTC2)).
T1 construct: also called SARS-CoV-2 RBD; wildtype RBD
The experiment in a line: crystal structure. To be noted: both partners purified.

Assay [2] concerns the target T2, SARS-CoV-2 WT RBD (Acro Biosystems, Cat #SPD-C52H3) (SARS-CoV-2 ancestral wildtype, UniProt P0DTC2).
T2 construct: also called wildtype RBD; ancestral wildtype SARS-CoV-2 RBD; source: bought: Acro Biosystems
The experiment in a line: ELISA. As to conditions: both partners purified. On the technique in general: An ELISA detects its analyte on a solid surface through an enzyme-linked reagent.

Here are results for two molecules from paper PMC9336126 (Communications Biology, 2022).

B1: ADI-62113 Fab (Fab, V domains shown)
VH: QVQLQQSGAEVKKPGASVKLSCKASGYTFSVFPIHWVRQAPGQRLEWMGWHNAGDGDTKYSQKFQGRVTIISDTSASTAYMELSSLKSEDTAVYYCARAARPYYDRRGYFFRADYFQHWGQGTLVTVSS
VL: DIQVTQSPSSLSASVGDRVTITCQASQDIKNSLNWYQQKPGKAPKLLISDASNLETGVPSRFSGNGSGTDFTFTISSLQPEDIATYYCQQYDNLITFGPGTKVEIK
Take B1: the binding result in assay [1] is “binds”.

B2: ADI-62113 IgG (antibody, V domains shown)
VH: QVQLQQSGAEVKKPGASVKLSCKASGYTFSVFPIHWVRQAPGQRLEWMGWHNAGDGDTKYSQKFQGRVTIISDTSASTAYMELSSLKSEDTAVYYCARAARPYYDRRGYFFRADYFQHWGQGTLVTVSS
VL: DIQVTQSPSSLSASVGDRVTITCQASQDIKNSLNWYQQKPGKAPKLLISDASNLETGVPSRFSGNGSGTDFTFTISSLQPEDIATYYCQQYDNLITFGPGTKVEIK
Take B2: the binding result in assay [2] is on record as “binds”.
